Measurements published in article PMC314469, “Protein Interaction Networks by Proteome Peptide Scanning” (PLoS Biology, 2004).

T1: Yhr016c SH3 (YSC84_YEAST), P32793
T1 chain: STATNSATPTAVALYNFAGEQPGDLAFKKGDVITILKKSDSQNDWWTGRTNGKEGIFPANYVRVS

T2: Boi2 SH3 (BOI2_YEAST), P39969
T2 chain: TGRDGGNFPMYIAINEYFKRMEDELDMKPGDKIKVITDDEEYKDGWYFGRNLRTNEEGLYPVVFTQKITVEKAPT

T3: Rvs167 SH3 (RV167_YEAST), P39743
T3 chain: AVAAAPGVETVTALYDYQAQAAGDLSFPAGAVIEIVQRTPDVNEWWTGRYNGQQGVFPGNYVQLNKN

T4: Yfr024 SH3 (LSB3_YEAST), P43603
T4 chain: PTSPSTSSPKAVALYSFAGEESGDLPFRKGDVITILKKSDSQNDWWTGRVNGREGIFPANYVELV

T5: Boi1 SH3 (BOI1_YEAST), P38041
T5 chain: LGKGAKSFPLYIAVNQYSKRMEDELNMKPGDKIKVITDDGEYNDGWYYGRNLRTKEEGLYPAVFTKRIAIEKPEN


Experiments:
Assay in all cases: SPOT array
[1] = biological target: T1, Yhr016c SH3 (YSC84_YEAST), P32793
[2] = biological target: T2, Boi2 SH3 (BOI2_YEAST), P39969
[3] = biological target: T3, Rvs167 SH3 (RV167_YEAST), P39743
[4] = biological target: T4, Yfr024 SH3 (LSB3_YEAST), P43603
[5] = biological target: T5, Boi1 SH3 (BOI1_YEAST), P38041

Binder | normalised SPOT signal, Boehringer light units (BLU); mean over the file's lines of this peptide [1] | normalised SPOT signal, Boehringer light units (BLU); mean over the file's lines of this peptide [2] | normalised SPOT signal, Boehringer light units (BLU); mean over the file's lines of this peptide [3] | normalised SPOT signal, Boehringer light units (BLU); mean over the file's lines of this peptide [4] | normalised SPOT signal, Boehringer light units (BLU); mean over the file's lines of this peptide [5]
KYDPDNPNKDKLGT [YBR235W 52-65] | 266 | 66.7 | 48.2 | 20.9 | 146
KWEPSTPQRNGPIL [YCR102C 158-171] | 1620 | 31.6 | 31.1 | 3400 | 143
LARPPPPKRIRTDS [YKL139W 32-45] | 3210 | 70.2 | 1260 | 15700 | 528
KSVPIPPRKNATLD [YJR113C 102-115] | 992 | 146 | 12100 | 25100 | 1140
LSIPDLPLRIHNQT [YCR087W 13-26] | 31200 | 35.3 | 2710 | 25400 | 69.2
LAPPLSPTKPSPLH [YDR425W 253-266] | 77.1 | 6.5 | 30.7 | 111 | 81.4
KRTPKIPEKDVKSD [YDR026C 223-236] | 187 | 47.6 | 242 | 342 | 151
KSSPWSPYKVEKVL [YBR156C 161-174] | 320 | 122 | 156 | 253 | 117
KPDPESPSKLRHYE [YBL101C 851-864] | 241 | 58.5 | 22.9 | 41.3 | 69.8
LDHPNIPWKLIISG [YJR117W 8-21] | 150 | 35.2 | 7.6 | 7.9 | 76.1
LDDPFTPPRWLHHI [YDR128W 52-65] | 708 | 38.5 | 89 | 3400 | 423
KSFPPPPLKPGQKT [YBR108W 84-97] | 229 | 183 | 57.7 | 220 | 112

Next, values leading:

normalised SPOT signal, Boehringer light units (BLU); mean over the file's lines of this peptide [1] | normalised SPOT signal, Boehringer light units (BLU); mean over the file's lines of this peptide [2] | normalised SPOT signal, Boehringer light units (BLU); mean over the file's lines of this peptide [3] | normalised SPOT signal, Boehringer light units (BLU); mean over the file's lines of this peptide [4] | normalised SPOT signal, Boehringer light units (BLU); mean over the file's lines of this peptide [5] | Binder
29100 | 31.9 | 25900 | 14400 | 143 | LDRPQLPPRQVVNA [YMR192W 159-172]
210 | 46 | 50.8 | 396 | 166 | KSKPKVPAKNPELE [YNL106C 1157-1170]
133 | 34.8 | 27.4 | 1930 | 46 | KTKPSIPPKKVELN [YPR171W 354-367]
1820 | 51.3 | 605 | 8630 | 285 | KRPPTAPQRKISLP [YPR171W 469-482]
236 | 71.3 | 8.2 | 16700 | 153 | KTKPTPPPKPSHLK [YNL020C 606-619]
124 | 52.1 | 6.8 | 249 | 154 | KPKPPKPIKYHFED [YMR044W 286-299]
603 | 43 | 51.1 | 2430 | 1870 | KWEPSTPQRKGPIL [YLR460C 166-179]
192 | 53.9 | 17.8 | 280 | 101 | KTVPQSPKKPLSLL [YOR058C 193-206]
172 | 15.7 | 30.9 | 222 | 310 | KYDPEDPNRRKLAR [YPL093W 387-400]
488 | 41.5 | 65.7 | 2010 | 551 | KYGPLPPSRASVGS [YLR143W 388-401]
